PMC4575208, “Characterization of Flavin-Containing Opine Dehydrogenase from Bacteria” (PLoS ONE, 2015)

T1: PpOdhB (beta-subunit of PpOpnDH, PpOdhABC) (Pseudomonas putida, UniProt Q88EK5+Q88EK6)
T1 construct: gene ooxB; N-terminal (His)6-tagged PpOdhB in the PpOdhABC complex (α4β4γ4); with PpOdhA (PP_4456) and PpOdhC
T1 sequence (Q88EK5 1-375): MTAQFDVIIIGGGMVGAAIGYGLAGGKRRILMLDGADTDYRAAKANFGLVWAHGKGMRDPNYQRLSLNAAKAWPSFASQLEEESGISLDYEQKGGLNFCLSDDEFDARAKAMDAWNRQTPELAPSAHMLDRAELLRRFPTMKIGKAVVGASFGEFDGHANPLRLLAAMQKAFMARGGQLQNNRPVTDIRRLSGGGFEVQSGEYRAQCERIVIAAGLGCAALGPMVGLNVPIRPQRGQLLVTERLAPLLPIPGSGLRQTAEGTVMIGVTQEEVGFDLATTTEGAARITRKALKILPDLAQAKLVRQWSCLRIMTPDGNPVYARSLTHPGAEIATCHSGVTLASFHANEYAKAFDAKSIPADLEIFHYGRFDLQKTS
T1 sequence (Q88EK6 2-464): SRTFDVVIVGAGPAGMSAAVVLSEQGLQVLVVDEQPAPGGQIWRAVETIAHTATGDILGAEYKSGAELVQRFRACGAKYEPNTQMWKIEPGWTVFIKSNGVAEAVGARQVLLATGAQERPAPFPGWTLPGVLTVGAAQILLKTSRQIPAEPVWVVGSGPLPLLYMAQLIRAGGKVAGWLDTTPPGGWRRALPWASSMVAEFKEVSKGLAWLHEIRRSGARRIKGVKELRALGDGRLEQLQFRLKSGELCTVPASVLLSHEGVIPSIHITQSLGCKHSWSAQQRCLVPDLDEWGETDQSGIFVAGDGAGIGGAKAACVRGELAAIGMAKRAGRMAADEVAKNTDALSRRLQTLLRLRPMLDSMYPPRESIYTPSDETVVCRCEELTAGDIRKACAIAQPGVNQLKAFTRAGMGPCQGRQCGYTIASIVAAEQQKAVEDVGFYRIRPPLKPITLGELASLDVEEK

T2: (His)6-tagged PpOdhB, β-subunit of opine dehydrogenase from Pseudomonas putida KT2440 (Pseudomonas putida KT2440, UniProt Q88EK5 1-375)
T2 construct: PpOdhB, product of gene PP_4457 of Pseudomonas putida KT2440; first gene of the operon PpOdhB-C-A; band of 42 kDa; Carries FAD; also called PP_4457; source: P. putida KT2442-oxyR1 harboring pUCP/PpOdhABC, co-expressed from the PpOdhB-C-A operon, purified (Ni-NTA); not shown: His6, N-terminal, kept
T2 sequence (looked up): T1 sequence (Q88EK5 1-375)

B1: PpOdhA, α-subunit of opine dehydrogenase from Pseudomonas putida KT2440 (enzyme, UniProt Q88EK6 1-464, looked up)
chain: MSRTFDVVIVGAGPAGMSAAVVLSEQGLQVLVVDEQPAPGGQIWRAVETIAHTATGDILGAEYKSGAELVQRFRACGAKYEPNTQMWKIEPGWTVFIKSNGVAEAVGARQVLLATGAQERPAPFPGWTLPGVLTVGAAQILLKTSRQIPAEPVWVVGSGPLPLLYMAQLIRAGGKVAGWLDTTPPGGWRRALPWASSMVAEFKEVSKGLAWLHEIRRSGARRIKGVKELRALGDGRLEQLQFRLKSGELCTVPASVLLSHEGVIPSIHITQSLGCKHSWSAQQRCLVPDLDEWGETDQSGIFVAGDGAGIGGAKAACVRGELAAIGMAKRAGRMAADEVAKNTDALSRRLQTLLRLRPMLDSMYPPRESIYTPSDETVVCRCEELTAGDIRKACAIAQPGVNQLKAFTRAGMGPCQGRQCGYTIASIVAAEQQKAVEDVGFYRIRPPLKPITLGELASLDVEEK
notes: PpOdhA, product of gene PP_4456 of Pseudomonas putida KT2440; GTG used as start codon; band of 46 kDa (45 kDa in the methods); The start (GTG codon) may differ from the annotated entry; also called PP_4456
B2: PpOdhB (beta-subunit of PpOpnDH, PpOdhABC) (Pseudomonas putida KT2440) (protein)
chain 1: T1 sequence (Q88EK5 1-375)
chain 2: T1 sequence (Q88EK6 2-464)
B3: BjOdhB2 (beta-subunit of BjOpnDH2, BjOdhAB2C) (Bradyrhizobium diazoefficiens USDA 110) (protein)
chain 1: MTGNVDAIVIGGGIHGCSTTLHLCLAGLKPVLIEKDYAGRHASGVNAGGVRQLARHVPEIPLSIRSMGIWERITDLLDDDCSFESHGQVLVAENEDELAVCRARVAELNALGFTHEELIDATELRRLVPAVAETCPGGVVSRRDGAANPAQTTTAFRRKAEQLGATVREGVAASNIRYSDGLWYVDVGSDTYAAPVLVNAAGAWAGKIAAALGEPVPVETVAPMLMITSRVPHFIDPVVILRGRKLSFKQFSNGTVLIGGGHLATPYQDRNETVLDWKSLAISARTVFELFPVMRSATIVRAWAGIEAKMKDDIPVFGPSSRHKGLYHQFGFSLHGFQLGPGAGAVMAELIVNGGTQTRIGDLGIDRFHPSTL
chain 2: MTVAPKREDYDVVVIGAGPAGLAAAATSAEAGLSTLLLDENIGPGGQVFRAISSTPVTDRNQLGADYWVGADLVQSLRASNAEVIQRAMVWSLDRNLDIAVSVGGASAFVKAKRVILATGALERPFPIPGWTLPGVMTAGAAQTMLKSSALVPDGRTVIAGQGPLLWLLAAQILRLGGRIDRILDTTERGNYFAALPHAFAFLTSPYFAKGLSMMREVKAKVQVVTGVTELTASGDGQLANVSYVAGGKRETLPVDLLLLHQGVVPNVNLAMAAGVEHRWDELQLCWSPVLDANGSSSVAGIAIAGDGAGIGGANAAVVRGRIAARAAVEALAPAAAAKLASMATLRADLAKAERGRAFLDTLFRPAPQFRIPSGDTIVCRCEEVTAKDVLDSVAIGATGPNQLKAYRRTGMGPCQGRLCGLTVTELMAQARGKSPQEIGYYRLRAPVKPITLAELAAVPKTEDDVKAVVRG
B4: BjOdhB1 (beta-subunit of BjOpnDH1, BjOdhAB1C) (Bradyrhizobium diazoefficiens USDA 110) (protein)
chain 1: MSGEYDVAVVGGGLLGSAIAWGLGRLGKKVAVLDEGDITKRASRANFALVWVQSKGLGMPAYTVWTVQASQAWGRLAFELKQQTGLDVSLQQNGGFHLTLGEDEFGQRTELVKRMHNQVGAADYKMEMLPASEVKKALPLIGPEVSGGSYCPLDGHVNSLRTFRAFHTGFMAFGIDYLPERPVSAISKSGGEFRLTTPKGELRAAKVVLAAGNANQTLAPMVGLHAPMGPTRGQIVVTERTMPFLPHPLTTIRQTDEGTVMIGDSKEDELDDRTLKHSISAVMTDRAQRMFPHLSRLNVIRSWAGIRVMPQDGFPIYDQSETHPGAFVACCHSGVTLASNHAFEIARMVAQGALEPELVGAFSASRFGGAGAANNSGY
chain 2: B3 chain 2

Legend:
[1] = molecular target: T1, PpOdhB (beta-subunit of PpOpnDH, PpOdhABC); test: inhibition of nopaline ([…]) dehydrogenase activity of the purified enzyme; format: biochemical
[2] = molecular target: (His)6-tagged PpOdhB, β-subunit of opine dehydrogenase from Pseudomonas putida KT2440 (Pseudomonas putida KT2440) (UniProt Q88EK5); test: pull-down; PpOdhB-C-A operon with N-terminal (His)6-tag on OdhB expressed in P. putida cells; Ni-NTA chromatography in buffer with Tween-20, 300 mM NaCl, pH 8.0; bands on SDS-PAGE identified by N-terminal sequencing; molar ratio by image scanning of SDS-PAGE peak areas (ImageJ)
[3] = molecular target: T2, (His)6-tagged PpOdhB, β-subunit of …; test: as above; conditions: partners not purified
[4] = substrate: N=C(N)NCCC[C@H](N[C@H](CCC(=O)O)C(=O)O)C(=O)O; test: purified protein; conditions: FAD, FMN, [2Fe-2S] the β- and α-subunit were both necessary for substrate binding
[5] = substrate: C[C@@H](N[C@@H](CCCNC(=N)N)C(=O)O)C(=O)O; test: purified protein; conditions: FAD, FMN

Molecule	Km [5]	kcat [5]	kcat/Km [5]	other results
O=C(O)CCC(=O)C(=O)O [α-ketoglutarate]	–	–	–	IC50 [1]: 589 µM
PpOdhC, γ-subunit of opine dehydrogenase from Pseudomonas putida KT2440 (enzyme)	–	–	–	stoichiometry N [2]: 1
B1	–	–	–	stoichiometry N [3]: ~1
B2	–	–	–	Km [4]: 0.476 mM; kcat [4]: 315 s⁻¹; kcat/Km [4]: 663000 M⁻¹ s⁻¹
B3	19.5 mM	72.8 s⁻¹	3730 M⁻¹ s⁻¹	–
B4	4.81 mM	0.0982 s⁻¹	20.3 M⁻¹ s⁻¹	–
